Source: paper PMC12908443 (Nature metabolism, 2021)

Columns and labels:
[1] = target: T1, Recombinant 6 × His-tagged Acs2 (Acs2–His6) (budding yeast (S. cerevisiae), UniProt P52910 1-683); assay: pull-down
T1 sequence (looked up): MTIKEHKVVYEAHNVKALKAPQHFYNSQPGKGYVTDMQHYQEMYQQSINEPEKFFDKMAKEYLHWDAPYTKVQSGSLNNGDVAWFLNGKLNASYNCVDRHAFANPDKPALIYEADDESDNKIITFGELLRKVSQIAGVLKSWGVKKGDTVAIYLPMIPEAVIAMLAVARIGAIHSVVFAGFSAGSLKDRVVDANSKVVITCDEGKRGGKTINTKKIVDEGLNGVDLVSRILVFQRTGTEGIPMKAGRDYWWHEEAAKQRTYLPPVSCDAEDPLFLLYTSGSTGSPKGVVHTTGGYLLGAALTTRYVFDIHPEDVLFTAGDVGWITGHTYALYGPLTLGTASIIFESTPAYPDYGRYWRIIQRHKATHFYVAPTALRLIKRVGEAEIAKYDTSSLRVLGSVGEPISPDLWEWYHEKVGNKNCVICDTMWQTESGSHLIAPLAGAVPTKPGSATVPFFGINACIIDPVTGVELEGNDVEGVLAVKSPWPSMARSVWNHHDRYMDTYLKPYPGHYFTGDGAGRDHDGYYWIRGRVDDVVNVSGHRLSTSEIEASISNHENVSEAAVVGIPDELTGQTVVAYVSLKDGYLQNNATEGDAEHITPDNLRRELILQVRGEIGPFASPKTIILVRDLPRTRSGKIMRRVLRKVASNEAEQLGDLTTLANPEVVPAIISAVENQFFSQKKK

[2] = target: T2, Glutathione S-transferase (GST)–Acs2 (budding yeast (S. cerevisiae), UniProt P52910 1-683); assay: pull-down
T2 sequence (looked up): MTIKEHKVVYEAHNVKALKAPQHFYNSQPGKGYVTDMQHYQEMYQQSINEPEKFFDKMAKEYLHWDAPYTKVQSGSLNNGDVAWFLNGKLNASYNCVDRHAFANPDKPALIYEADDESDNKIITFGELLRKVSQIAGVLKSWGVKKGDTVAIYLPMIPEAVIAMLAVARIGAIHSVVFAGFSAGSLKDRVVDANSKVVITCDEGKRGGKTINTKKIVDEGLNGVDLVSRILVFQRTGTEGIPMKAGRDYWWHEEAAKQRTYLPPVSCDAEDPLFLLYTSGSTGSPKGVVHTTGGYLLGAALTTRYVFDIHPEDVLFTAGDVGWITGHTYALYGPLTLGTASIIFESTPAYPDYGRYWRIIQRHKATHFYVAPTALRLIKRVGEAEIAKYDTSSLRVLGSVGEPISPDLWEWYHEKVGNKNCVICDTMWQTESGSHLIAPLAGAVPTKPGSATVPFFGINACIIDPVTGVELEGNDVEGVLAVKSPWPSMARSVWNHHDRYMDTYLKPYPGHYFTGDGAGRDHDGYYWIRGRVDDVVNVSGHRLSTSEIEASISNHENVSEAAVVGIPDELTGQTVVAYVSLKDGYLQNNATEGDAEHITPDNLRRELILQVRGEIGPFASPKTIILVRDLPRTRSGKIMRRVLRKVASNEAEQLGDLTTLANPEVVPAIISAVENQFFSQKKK

B1: Recombinant CL7-tagged Sas2 (Sas2–CL7) (enzyme, budding yeast (S. cerevisiae), UniProt P40963 1-338, looked up)
chain: MARSLSQSLTATTQKLKGKKNGGKGKNKPSAKIKKTQKEMLYGILNERNIRQIQFGLNKKFSTWYGSAVYFDPETKRLGCSETKGQLSSVSNSQYWLDTLFVCEYCFKYTDDQTRFVGHVASCPFQYRVPGKIKYKSPEYTIRRVKGSKYQLFCQCLCLFTKLYLDNKSMYFKVDHYEFYIVYETGSTKPMGFFSKDLVSYQQNNLACILIFPPYQRRGLGLLLIEFSYKLSQLEGVISGPEVPLSPFGLIGYLKYWSQILCWHLIEGDLAHYDKVTLEDLSIVTGMRVNDVILTLKHLNCIGENNQIYLQSLNSWLKLHGTKRNWFKLKDEYLLIDD
- binding result [1]: binds

B2: Purified recombinant Sas2 (Sas2–His6) (enzyme, budding yeast (S. cerevisiae), UniProt P40963 1-338, looked up)
chain: MARSLSQSLTATTQKLKGKKNGGKGKNKPSAKIKKTQKEMLYGILNERNIRQIQFGLNKKFSTWYGSAVYFDPETKRLGCSETKGQLSSVSNSQYWLDTLFVCEYCFKYTDDQTRFVGHVASCPFQYRVPGKIKYKSPEYTIRRVKGSKYQLFCQCLCLFTKLYLDNKSMYFKVDHYEFYIVYETGSTKPMGFFSKDLVSYQQNNLACILIFPPYQRRGLGLLLIEFSYKLSQLEGVISGPEVPLSPFGLIGYLKYWSQILCWHLIEGDLAHYDKVTLEDLSIVTGMRVNDVILTLKHLNCIGENNQIYLQSLNSWLKLHGTKRNWFKLKDEYLLIDD
- binding result [2]: binds
